Measurements published in US20200277374A1 (Alector, published 2020).

Experiments:
T107A [1] = target: T1, T107A (human, UniProt Q9Y286); assay: flow cytometry on HEK-293T cells expressing the mutant, mock signal subtracted
T1 construct: clone of the siglec-7 mutation library; also called Siglec-7 T107A
Experimental: (§1) Shotgun mutagenesis epitope mapping of anti-siglec-7 antibodies was performed using an alanine-scanning library for the siglec-7 protein. […] Each of residues 19 to 353 was mutated, representing the siglec-7 extracellular domain, most to alanine, while alanine codons were mutated to serine. In total, 335 siglec-7 mutant expression constructs were generated, sequences confirmed, and arrayed into a 384-well plate, one mutant per well.
(§2) Cells were then incubated with MAbs diluted in 10% o normal goat serum (NGS) (Sigma-Aldrich, St. Louis, Mo.). Prior to library screening, primary MAb concentrations were determined using an independent immunofluorescence titration curve against cells expressing wild-type siglec-7 to ensure that signals were within the linear range of detection. MAbs were detected using 3.75 μg/ml AlexaFluor488-conjugated secondary antibody (Jackson immunoResearch Laboratories, Westgrove, Pa.) in 10% NGS. […] Mean cellular fluorescence was detected using the Intellicyt high throughput flow cytometer (HTFC, Intellicyt, Albuquerque, N. Mex.). MAb reactivities against each mutant clone were calculated relative to wild-type siglec-7 protein reactivity by subtracting the signal from mock-transfected controls, and normalizing to the signal from wild-type siglec-7-transfected controls.

Y50A (human) = Y50A (human) (UniProt Q9Y286); assay: flow cytometry on HEK-293T cells expressing the mutant; mean % of wild-type signal (range of duplicates)
Chain of Y50A (human) (Q9Y286 19-467 Y50A limits assumed): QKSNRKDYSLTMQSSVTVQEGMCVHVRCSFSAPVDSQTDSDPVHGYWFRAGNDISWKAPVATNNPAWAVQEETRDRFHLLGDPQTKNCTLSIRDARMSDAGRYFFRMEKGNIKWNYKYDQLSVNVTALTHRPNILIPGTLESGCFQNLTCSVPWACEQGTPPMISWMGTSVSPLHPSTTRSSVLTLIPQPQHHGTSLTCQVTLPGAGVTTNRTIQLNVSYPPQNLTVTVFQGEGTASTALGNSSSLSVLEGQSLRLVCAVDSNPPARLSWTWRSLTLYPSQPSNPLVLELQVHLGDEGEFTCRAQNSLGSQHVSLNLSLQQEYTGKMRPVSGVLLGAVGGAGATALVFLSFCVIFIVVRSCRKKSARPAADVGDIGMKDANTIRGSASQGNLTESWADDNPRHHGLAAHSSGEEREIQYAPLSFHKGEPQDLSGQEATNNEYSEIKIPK

F48A (human) = F48A (human) (UniProt Q9Y286); assay: as above
Chain of F48A (human) (Q9Y286 19-467 F48A limits assumed): as the sequence (Q9Y286 19-467 Y50A limits assumed) above, with F30A, A32Y counted along it

V44A (human) = V44A (human) (UniProt Q9Y286); assay: as above
Chain of V44A (human) (Q9Y286 19-467 V44A limits assumed): as the sequence (Q9Y286 19-467 Y50A limits assumed) above, with V26A, A32Y counted along it

T103A (human) = T103A (human) (UniProt Q9Y286); assay: as above
Chain of T103A (human) (Q9Y286 19-467 T103A limits assumed): as the sequence (Q9Y286 19-467 Y50A limits assumed) above, with A32Y, T85A counted along it

M30A (human) = M30A (human) (UniProt Q9Y286); assay: as above
Chain of M30A (human) (Q9Y286 19-467 M30A limits assumed): as the sequence (Q9Y286 19-467 Y50A limits assumed) above, with M12A, A32Y counted along it

I72A = target: T2, I72A (human, UniProt Q9Y286); assay: as above
T2 construct: clone of the siglec-7 mutation library; also called Siglec-7 I72A
T2 sequence (Q9Y286 19-467 I72A limits assumed): as the sequence (Q9Y286 19-467 Y50A limits assumed) above, with A32Y, I54A counted along it
Experimental: as §1
(§3) Cells were then incubated with MAbs diluted in 10% o normal goat serum (NGS) (Sigma-Aldrich, St. Louis, Mo.). Prior to library screening, primary MAb concentrations were determined using an independent immunofluorescence titration curve against cells expressing wild-type siglec-7 to ensure that signals were within the linear range of detection. MAbs were detected using 3.75 μg/ml AlexaFluor488-conjugated secondary antibody (Jackson immunoResearch Laboratories, Westgrove, Pa.) in 10% NGS. Cells were washed twice with PBS−/− and resuspended in Cellstripper (Cellgro, Manassas, Va.) with 0.1% BSA (Sigma-Aldrich, St. Louis, Mo.). Mean cellular fluorescence was detected using the Intellicyt high throughput flow cytometer (HTFC, Intellicyt, Albuquerque, N. Mex.). MAb reactivities against each mutant clone were calculated relative to wild-type siglec-7 protein reactivity by subtracting the signal from mock-transfected controls, and normalizing to the signal from wild-type siglec-7-transfected controls.

N81A = target: T3, N81A (human, UniProt Q9Y286); assay: as above
T3 construct: clone of the siglec-7 mutation library; also called Siglec-7 N81A
T3 sequence (Q9Y286 19-467 N81A limits assumed): as the sequence (Q9Y286 19-467 Y50A limits assumed) above, with A32Y, N63A counted along it
Experimental: as §1, §3

T107A [2] = target: T1, T107A; assay: as above
Experimental: as §1, §3

Q31A = target: T4, Q31A (human, UniProt Q9Y286); assay: as above
T4 construct: clone of the siglec-7 mutation library; also called Siglec-7 Q31A
T4 sequence (Q9Y286 19-467 Q31A limits assumed): as the sequence (Q9Y286 19-467 Y50A limits assumed) above, with Q13A, A32Y counted along it
Experimental: as §1, §3

R45A = target: T5, R45A (human, UniProt Q9Y286); assay: as above
T5 construct: clone of the siglec-7 mutation library; also called Siglec-7 R45A
T5 sequence (Q9Y286 19-467 R45A limits assumed): as the sequence (Q9Y286 19-467 Y50A limits assumed) above, with R27A, A32Y counted along it
Experimental: as §1, §3

R124A [3] = target: T6, R124A (human, UniProt Q9Y286); assay: as above
T6 construct: clone of the siglec-7 mutation library; also called Siglec-7 R124A
T6 sequence (Q9Y286 19-467 R124A limits assumed): as the sequence (Q9Y286 19-467 Y50A limits assumed) above, with A32Y, R106A counted along it
Experimental: as §1, §3

S47A = target: T7, S47A (human, UniProt Q9Y286); assay: as above
T7 construct: clone of the siglec-7 mutation library; also called Siglec-7 S47A
T7 sequence (Q9Y286 19-467 S47A limits assumed): as the sequence (Q9Y286 19-467 Y50A limits assumed) above, with S29A, A32Y counted along it
Experimental: as §1, §3

W74A = target: T8, W74A (human, UniProt Q9Y286); assay: as above
T8 construct: clone of the siglec-7 mutation library; also called Siglec-7 W74A
T8 sequence (Q9Y286 19-467 W74A limits assumed): as the sequence (Q9Y286 19-467 Y50A limits assumed) above, with A32Y, W56A counted along it
Experimental: as §1, §3

[4] = target: T9, human Siglec-7 expressed on human cells (primary monocytes, dendritic cells, macrophages, NK cells, … (human, UniProt Q9Y286 19-467)); assay: FACS, human primary dendritic cells, 10 ug/ml mAb
T9 construct: Endogenous receptor on cells; also called Siglec-7 receptor
T9 sequence (Q9Y286 19-467): as the sequence (Q9Y286 19-467 Y50A limits assumed) above, with A32Y counted along it

[5] = target: T9, human Siglec-7 expressed on human cells …; assay: FACS, human primary monocytes, 10 ug/ml mAb
[6] = target: T9, human Siglec-7 expressed on human cells …; assay: cell-based or functional assay
[7] = target: T9, human Siglec-7 expressed on human cells …; assay: FACS, human primary macrophages, 10 ug/ml mAb
[8] = target: T10, Siglec-7-Fc (plate immobilized) (human, UniProt Q9Y286 19-357, limits assumed); assay: RBC solid adhesion assay, plate-coated Siglec-7-Fc, antibody 0.5 or 1.0 ug/ml; % of RBC binding without antibody
T10 construct: also called Siglec-7-Fc protein; immobilized Siglec-7; not shown: Fc part
T10 sequence (Q9Y286 19-357 limits assumed): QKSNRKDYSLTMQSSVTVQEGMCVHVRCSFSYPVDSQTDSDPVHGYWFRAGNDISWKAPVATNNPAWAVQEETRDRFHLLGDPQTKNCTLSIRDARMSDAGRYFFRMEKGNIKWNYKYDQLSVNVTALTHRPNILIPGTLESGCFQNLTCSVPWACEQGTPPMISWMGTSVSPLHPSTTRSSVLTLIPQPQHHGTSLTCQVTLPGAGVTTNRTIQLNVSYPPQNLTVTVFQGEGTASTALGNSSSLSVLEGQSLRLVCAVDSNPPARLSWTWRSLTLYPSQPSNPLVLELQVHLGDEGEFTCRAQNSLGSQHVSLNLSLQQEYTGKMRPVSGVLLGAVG
Procedure, shortened: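 Plates coated overnight at RT with 5 μg/ml Siglec-7-Fc and blocked in PBS with BSA and 1 mM CaCl₂. Antibody (0.5 or 1.0 μg/ml) bound 1 h at RT, then RBCs (3.0×10⁶ cells/ml) added for 1 h at RT. Bound RBCs lysed and detected by peroxidase at 450 nm, expressed as % of binding without antibody.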

[9] = target: T9, human Siglec-7 expressed on human cells …; assay: cell-based or functional assay; remark: listed apart in the source
[10] = target: T11, Histidine-tagged human Siglec-7 (NovoProtein) (human, UniProt Q9Y286 19-357, limits assumed); assay: SPR (BiaCore T200, 25 C), antibody captured on anti-mouse IgG, Siglec-7-His 5 nM, single-concentration kinetics
T11 construct: Bought protein; also called purified Siglec-7-his tagged protein; not shown: histidine tag
T11 sequence (Q9Y286 19-357 limits assumed): as above
Experimental: (§4) SPR data was collected at a rate of 10 Hz at 25′ C on a BiaCore T200 instrument. Data analysis was performed using BiaCore T200 Evaluation Software, version 2.0. HBS-EP+ (100 mM HEPES, 1.5 M NaCl, 30 mM EDTA, 0.5% v/v Surfactant P20, pH 7.4) was used as running buffer and for preparing reagents.
(§5) Mouse-derived antibodies (25 nM) against Siglec-7 were captured (60 s contact time, 30 μL/min flow rate, 0 s stabilization time) on a CM5 sensor chip (GE Healthcare) immobilized with anti-mouse IgG. Histidine-tagged human Siglec-7 (NovoProtein) was then flowed over the captured anti-Siglec-7 surface (120 s contact time, 30 μL/min flow rate, 300 s dissociation time). Concentration of antigen ranged from 5 nM to 100 nM, depending on information obtained from an initial screen. Duplicate single-concentration trials were performed and bracketed by a blank (0 nM antigen) sample. The chip surface was regenerated in between cycles using 10 mM glycine-HCl, pH1.7 (60 s contact time, 30 μL/min flow rate, 60 s stabilization time). The resulting SPR signal was obtained as the difference in response from measurements performed on a blank flow cell.
(§6) Affinity constants (KD) were calculated from the ratio kd/kₐ. For one antibody (clone 1E8), we validated the single-concentration analysis with a multiple-concentration approach (five concentrations of antigen used, plus one blank).

[11] = target: T11, Histidine-tagged human Siglec-7 …; assay: SPR (Biacore T200), antibody captured on anti-mouse IgG, 5 nM Siglec-7-his flowed over, single-concentration 1:1 fit, 25 C
Experimental: as §4, §5, §6

R124A [12] = target: T6, R124A; assay: flow cytometry on HEK-293T cells expressing the mutant, mock signal subtracted
Experimental: as §1, §2

M30A = target: T12, M30A (human, UniProt Q9Y286); assay: flow cytometry on HEK-293T cells expressing the mutant; mean % of wild-type signal (range of duplicates)
T12 construct: clone of the siglec-7 mutation library; also called Siglec-7 M30A
T12 sequence (Q9Y286 19-467 M30A limits assumed): as the sequence (Q9Y286 19-467 Y50A limits assumed) above, with M12A, A32Y counted along it
Experimental: as §1, §3

M185A = target: T13, M185A (human, UniProt Q9Y286); assay: as above
T13 construct: clone of the siglec-7 mutation library; also called Siglec-7 M185A
T13 sequence (Q9Y286 19-467 M185A limits assumed): as the sequence (Q9Y286 19-467 Y50A limits assumed) above, with A32Y, M167A counted along it
Experimental: as §1, §3

V44A = target: T14, V44A (human, UniProt Q9Y286); assay: as above
T14 construct: clone of the siglec-7 mutation library; also called Siglec-7 V44A
T14 sequence (Q9Y286 19-467 V44A limits assumed): as the sequence (Q9Y286 19-467 Y50A limits assumed) above, with V26A, A32Y counted along it
Experimental: as §1, §3

F48A = target: T15, F48A (human, UniProt Q9Y286); assay: as above
T15 construct: clone of the siglec-7 mutation library; also called Siglec-7 F48A
T15 sequence (Q9Y286 19-467 F48A limits assumed): as the sequence (Q9Y286 19-467 Y50A limits assumed) above, with F30A, A32Y counted along it
Experimental: as §1, §3

Y50A = target: T16, Y50A (human, UniProt Q9Y286); assay: as above
T16 construct: clone of the siglec-7 mutation library; also called Siglec-7 Y50A
T16 sequence (Q9Y286 19-467 Y50A limits assumed): as the sequence (Q9Y286 19-467 Y50A limits assumed) above
Experimental: as §1, §3

K104A = target: T17, K104A (human, UniProt Q9Y286); assay: as above
T17 construct: clone of the siglec-7 mutation library; also called Siglec-7 K104A
T17 sequence (Q9Y286 19-467 K104A limits assumed): as the sequence (Q9Y286 19-467 Y50A limits assumed) above, with A32Y, K86A counted along it
Experimental: as §1, §3

T1 sequence (Q9Y286 19-467 T107A limits assumed): as the sequence (Q9Y286 19-467 Y50A limits assumed) above, with A32Y, T89A counted along it

B1: 10B5 Fab (Fab, V domains shown)
VH: QVHLQQSGPELVKPGASVKISCKASGYAFTNCWMNWVRQRPGKGLDWIGRIFPGNGHTNYSGKFKDKATLTEDKSSSTAYMQLSSLTSEDSAVYFCARDYSDYYFDYWGQGTTLTVSS
VL: DVQMTQTTSSLSASLGDRVTISCRASQDINTYLNWYQQKPDGTVKLLIYYTSRLHSGVPSRFSGSGSGTDYSLTISNLEQEDIATYFCQQGNTLPWTFGGGTKLEIK
binding result (T107A [1]): no binding | Binding Reactivity (% WT) (Y50A (human)): 18.2 % WT | Binding Reactivity (% WT) (F48A (human)): 13.9 % WT | Binding Reactivity (% WT) (V44A (human)): 13.3 % WT | Binding Reactivity (% WT) (T103A (human)): 6.3 % WT | Binding Reactivity (% WT) (M30A (human)): 20.1 % WT | Binding Reactivity (% WT) (I72A): 92.8 % WT | Binding Reactivity (% WT) (N81A): 138 % WT | Binding Reactivity (% WT) (T107A [2]): 0.4 % WT | Binding Reactivity (% WT) (Q31A): 18.2 % WT | Binding Reactivity (% WT) (R45A): 1.6 % WT | Binding Reactivity (% WT) (R124A [3]): 81.1 % WT | Binding Reactivity (% WT) (S47A): 1.5 % WT | Binding Reactivity (% WT) (W74A): 79.8 % WT

B2: anti-Siglec-7 antibody 1E8 (antibody, V domains shown)
VH: QVQLQQSGAELVRPGASVKLSCSASGFNIKGSLLHWIKQRPLQGLEWIGWIDPEDGETRFDPKFQDKAFLTADTSSTTAYLQLSSLTSEDTAIYYCARTEYSNPAWFAYWGQGTLVTVSA
VL: DIQMTQFPATLSVTPGDRVSLSCRASQSISDYLHWYQHKSHESPRLLIKYASQSISGIPSRFSGSGSGWDFTLSINSVEPEDVGIYYCQKGLNFPLTFGGGTKLEMK
% Positive [4]: 99.7% | MFI [4]: 2940 | % Positive [5]: 99.3% | MFI [5]: 428 | Percent Siglec-7 Surface Expression, DCs [6]: 23% | Percent Siglec-7 Surface Expression, Monocytes [6]: 36.7% | Percent Siglec-7 Surface Expression, U937 cells [6]: 114% | % Positive [7]: 99.5% | MFI [7]: 5450 | Percent RBC Binding to Siglec-7 [8]: 16.4% | Percent Siglec-7 Surface Expression, Macrophages [9]: 9.1% | Percent Siglec-7 Surface Expression, Microglia [9]: 41.3% | Percent Siglec-7 Surface Expression, NK cells [9]: 144% | Kd [10]: 0.017 nM | Kd [11]: 0.017 nM

B3: 4E3 Fab (Fab, V domains shown)
VH: EVQLVESGGALVKPGGSLKISCAVSGFIFSNYDMSWVRQNPEKRLEWVATISSGGGYTYYPDSVKGRFTISRDNAKNALYLQMSSLRSEDTALYYCTRHGYGNYDWYFDVWGAGATVTVSS
VL: QIVLTQSPAILSASPGEKVTMTCSANSSFTYMYWYQQKPGSSPRLLIFDTSNLASGVPIRFSGSGSGTSYSLTISRMEAEDTATYYCQQWSSSPLTFGAGTKLELK
binding result (R124A [12]): no binding | Binding Reactivity (% WT) (I72A): 26.5 % WT | Binding Reactivity (% WT) (M30A): 123 % WT | Binding Reactivity (% WT) (M185A): 91.6 % WT | Binding Reactivity (% WT) (N81A): 22 % WT | Binding Reactivity (% WT) (V44A): 115 % WT | Binding Reactivity (% WT) (T107A [2]): 124 % WT | Binding Reactivity (% WT) (F48A): 146 % WT | Binding Reactivity (% WT) (Q31A): 112 % WT | Binding Reactivity (% WT) (Y50A): 139 % WT | Binding Reactivity (% WT) (K104A): 115 % WT | Binding Reactivity (% WT) (R45A): 129 % WT | Binding Reactivity (% WT) (R124A [3]): 1 % WT | Binding Reactivity (% WT) (S47A): 103 % WT | Binding Reactivity (% WT) (W74A): 25.7 % WT
